Experimental data: paper PMC3509150 (2012)

Target: HIV-1 capsid protein (CA), full-length (HIV-1, UniProt P12493 133-363)

B1: CANTDcb1 nanobody with C-terminal 6xHis-tag, purified (VHH)
VHH: QVQLVESGGGLVQAGGSLRLSCAASGYFSSYAMGWFRQAPGKEREFVAAISWIESTTDYADSVKGRFTISRDNAKKTLHLQMNSLKPEDTAVYYCAACDIPFGQAFCALYDYWGQGTQVTVSS
Binder B1 has a koff of 0.00012 s⁻¹.
